From IntAct's records for PubMed 17965270

B1: B-box zinc finger protein 21 (Arabidopsis thaliana (Mouse-ear cress)), Q9LQZ7 (parent)
chain: MKIRCDVCDKEEASVFCTADEASLCGGCDHQVHHANKLASKHLRFSLLYPSSSNTSSPLCDICQDKKALLFCQQDRAILCKDCDSSIHAANEHTKKHDRFLLTGVKLSATSSVYKPTSKSSSSSSSNQDFSVPGSSISNPPPLKKPLSAPPQSNKIQPFSKINGGDASVNQWGSTSTISEYLMDTLPGWHVEDFLDSSLPTYGFSKSGDDDGVLPYMEPEDDNNTKRNNNNNNNNNNNTVSLPSKNLGIWVPQIPQTLPSSYPNQYFSQDNNIQFGMYNKETSPEVVSFAPIQNMKQQGQNNKRWYDDGGFTVPQITPPPLSSNKKFRSFW
partner: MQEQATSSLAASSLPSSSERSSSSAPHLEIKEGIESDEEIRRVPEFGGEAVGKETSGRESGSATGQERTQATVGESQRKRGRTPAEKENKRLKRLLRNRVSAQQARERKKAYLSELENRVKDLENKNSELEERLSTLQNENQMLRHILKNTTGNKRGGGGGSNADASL

Variants of: B1
Conditions: with hy5_arath HY5, O24646

Variant	effect of a mutation on the interaction
D75A	disrupting interaction
D20A	disrupting interaction
D84A	disrupting interaction
